This is an account of results in patent US20190262368A1.

Experiment [1] addresses human LOX1 on cells (human LOX1 transfected CHO TREX cells; endogenous on HAECs) (human) (UniProt P78380). Put plainly: cell-based or functional assay.
The target is the same in experiment [2]. As to the kind of experiment: row label missing; by the order of Table 5 taken as oxLDL/hLOX1 CHO competition (FMAT, DyLight 649 oxLDL as competitor), Mean.
Experiment [3] addresses human LOX1 SNP K167N variant on transfected CHO TREX cells (human) (UniProt P78380). Put plainly: row label missing; by the order of Table 5 taken as oxLDL/K167N hLOX1 CHO competition (FMAT, DyLight 649 oxLDL as competitor), Mean.
Experiment [4] addresses human LOX1 on cells (human LOX1 transfected CHO TREX cells; endogenous on HAECs) (human) (UniProt P78380). Put plainly: row label missing; by the order of Table 5 taken as AGE BSA/hLOX1 CHO competition (FMAT, DyLight 649 AGE-BSA as competitor), Mean.
Experiment [5] deals with recombinant human LOX1 (R&D Systems) (human) (UniProt P78380). As to the kind of experiment: row label missing; by the order of Table 5 taken as CRP/hLOX1 competition (plate assay, biotin CRP as competitor, immobilised recombinant hLOX1), Mean.

Broadly, the IC50 is the concentration that gives 50% inhibition. For the substance “23C11, commercially available mouse anti-LOX-1 antibody”, the IC50 (Mean) of oxLDL internalisation in hLOX1 CHO cells; row label missing, taken by the order of Table 5 in experiment [1] came out at 2.85 nM. In addition, the IC50 (Mean) of oxLDL-dependent ROS generation in hLOX1 CHO cells; row label missing, taken by the order of Table 5 in experiment [1] is 10.1 nM. The IC50 in experiment [2] is 2.2 nM; in experiment [3] it was 1.31 nM; in experiment [4] it was 1.15 nM; in experiment [5], 11.1 nM.
